# Results reported in US20040072184.
# T1: CREBtide
# T1 chain: KRREILSRRPSYR
# T2: Calmodulin Dependent Protein Kinase Substrate
# T2 chain: PLSRTLSVSS
# T3: Syntide 2
# T3 chain: PLARTLSVAGLPGKK
# T4: GST-SGK2 fusion protein
# T4 chain: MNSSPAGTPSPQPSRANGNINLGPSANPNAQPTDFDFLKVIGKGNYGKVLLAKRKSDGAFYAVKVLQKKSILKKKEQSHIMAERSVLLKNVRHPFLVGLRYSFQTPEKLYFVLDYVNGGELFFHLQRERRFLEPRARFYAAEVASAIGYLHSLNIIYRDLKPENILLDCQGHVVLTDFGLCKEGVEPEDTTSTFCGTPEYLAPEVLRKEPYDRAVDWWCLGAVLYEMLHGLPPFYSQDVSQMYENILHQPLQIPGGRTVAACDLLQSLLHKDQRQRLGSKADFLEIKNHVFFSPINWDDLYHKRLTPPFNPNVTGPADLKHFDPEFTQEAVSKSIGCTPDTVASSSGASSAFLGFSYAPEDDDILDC
# T5: PKB-sub peptide
# T5 chain: CKRPRAASFAE
# B1: X-press-CaMK-X1 fusion protein (protein)
# chain: MGRKEEDDCSSWKKQTTNIRKTFIFMEVLGSGAFSEVFLVKQRLTGKLFALKCIKKSPAFRDSSLENEIAVLKKIKHENIVTLEDIYESTTHYYLVMQLVSGGELFDRILERGVYTEKDASLVIQQVLSAVKYLHENGIVHRDLKPENLLYLTPEENSKIMITDFGLSKMEQNGIMSTACGTPGYVAPEVLAQKPYSKAVDCWSIGVITYILLCGYPPFYEETESKLFEKIKEGYYEFESPFWDDISESAKDFICHLLEKDPNERYTCEKALSHPWIDGNTALHRDIYPSVSLQIQKNFAKSKWRQAFNAAAVVHHMRKLHMNLHSPGVRPEVENRPPETQASETSRPSSPEITITEAPVLDHSVALPALTQLPCQHGRRPTAPGGRSLNCLVNGSLHISSSLVPMHQGSLAAGPCGCCSSCLNIGSKGKSSYCSEPTLLKKANKKQNFKSEVMVPVKASGSSHCRAGQTGVCLIM
# B2: Histidine tagged CaMK-X1 expressed in Sf9 cells (protein)
# chain: B1 chain
# B3: His-tag PDK1 (protein)
# chain: MARTTSQLYDAVPIQSSVVLCSCPSPSMVRTQTESSTPPGIPGGSRQGPAMDGTAAEPRPGAGSLQHAQPPPQPRKKRPEDFKFGKILGEGSFSTVVLARELATSREYAIKILEKRHIIKENKVPYVTRERDVMSRLDHPFFVKLYFTFQDDEKLYFGLSYAKNGELLKYIRKIGSFDETCTRFYTAEIVSALEYLHGKGIIHRDLKPENILLNEDMHIQITDFGTAKVLSPESKQARANSFVGTAQYVSPELLTEKSACKSSDLWALGCIIYQLVAGLPPFRAGNEYLIFQKIIKLEYDFPEKFFPKARDLVEKLLVLDATKRLGCEEMEGYGPLKAHPFFESVTWENLHQQTPPKLTAYLPAMSEDDEDCYGNYDNLLSQFGCMQVSSSSSSHSLSASDTGLPQRSGSNIEQYIHDLDSNSFELDLQFSEDEKRLLLEKQAGGNPWHQFVENNLILKMGPVDKRKGLFARRRQLLLTEGPHLYYVDPVNKVLKGEIPWSQELRPEAKNFKTFFVHTPNRTYYLMDPSGNAHKWCRKIQEVWRQRYQSHPDAAVQ
# B4: GST-DM-PK fusion protein (protein)
# chain: MSAEVRLRRLQQLVLDPGFLGLEPLLDLLLGVHQELGASELAQDKYVADFLQWAEPIVVRLKEVRLQRDDFEILKVIGRGAFSEVAVVKMKQTGQVYAMKIMNKWDMLKRGEVSCFREERDVLVNGDRRWITQLHFAFQDENYLYLVMEYYVGGDLLTLLSKFGERIPAEMARFYLAEIVMAIDSVHRLGYVHRDIKPDNILLDRCGHIRLADFGSCLKLRADGTVRSLVAVGTPDYLSPEILQAVGGGPGTGSYGPECDWWALGVFAYEMFYGQTPFYADSTAETYGKIVHYKEHLSLPLVDEGVPEEARDFIQRLLCPPETRLGRGGAGDFRTHPFFFGLDWDGLRDSVPPFTPDFEGATDTCNFDLVEDGLTAMVSGGGETLSDIREGAPLGVHLPFVGYSYSCMALRDSEVPGPTPMEVEAEQLLEPHVQAPSLEPSVSPQDETAEVAVPAAVPAAEAEAEVTLRELQEALEEEVLTRQSLSREMEAIRTDNQNFASQLREAEARNRDLEAHVRQLQERMELLQAEGATAVTGVPSPRATDPPSHLDGPPAVAVGQCPLVGPGPMHRRHLLLPARVPRPGLSEALSLLLFAVVLSRAAALGCIGLVAHAGQLTAVWRRPGAARAP
# B5: GST-SGK2 fusion protein (protein)
# chain: T4 chain
# Tests used:
# CREBtide = target: T1, CREBtide
# [1] = target: T2, Calmodulin Dependent Protein Kinase …
# Syntide 2 = target: T3, Syntide 2
# GST-SGK2 fusion protein = target: T4, GST-SGK2 fusion protein
# PKB-sub peptide = target: T5, PKB-sub peptide
# PDK1 peptide, sequence (chain, as listed by the source): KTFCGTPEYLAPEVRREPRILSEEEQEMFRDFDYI
protein,measurement,setting,value
B1,in vitro kinase assay (32P incorporation) with immunoprecipitated CaMK-X1,CREBtide,CaMK-X1 phosphorylated CREBtide and Syntide 2 in vitro
same,in vitro kinase assay (32P incorporation) with immunoprecipitated CaMK-X1,[1],CaMK-X1 could not phosphorylate control peptide
same,in vitro kinase assay (32P incorporation) with immunoprecipitated CaMK-X1,Syntide 2,CaMK-X1 phosphorylated CREBtide and Syntide 2 in vitro
B2,in vitro kinase assay (32P incorporation) with Ni2+ column purified CaMK-X1,CREBtide,CREBtide and Syntide 2 are phosphorylated by the purified CaMK-X1
same,in vitro kinase assay (32P incorporation) with Ni2+ column purified CaMK-X1,[1],Syntide 2and CREBtide had higher incorporation of ^32p than the control peptide
same,in vitro kinase assay (32P incorporation) with Ni2+ column purified CaMK-X1,Syntide 2,CREBtide and Syntide 2 are phosphorylated by the purified CaMK-X1
B3,"32P phosphorylation of SGK2 after incubation with PDK1, SDS-PAGE",GST-SGK2 fusion protein,"SGK2 activated by PKD1 was significantly phosphorylated, while non-activated SGK2 was not"
same,in vitro kinase activity of SGK2 after activation by PDK1,GST-SGK2 fusion protein,the PDK1 activated SGK2 had significantly higher kinase activity compared to non-activated SGK2
B4,in vitro kinase assay with DM-PK purified from E. coli,Histone H1,MBP and Histone H1 were both phosphorylated by purified DM-PK in these assays
same,in vitro kinase assay with DM-PK purified from E. coli,MBP,MBP and Histone H1 were both phosphorylated by purified DM-PK in these assays
B5,in vitro kinase assay (32P incorporation) with purified SGK2,PDK1 peptide,addition of same amount of control peptide (PDK1 peptide) had no significant incorporation
same,in vitro kinase assay (32P incorporation) with purified SGK2,PKB-sub peptide,PKB-sub had significant incorporation of ^32P
